The results in this text go back to patent US20230250154A1 (CYTONICS, published 2023).

What all share (assay): cell-based or functional assay
One assay addresses T1, ADAMTS5 (human, UniProt Q9UNA0 262-622, limits assumed).
T1 sequence (looked up): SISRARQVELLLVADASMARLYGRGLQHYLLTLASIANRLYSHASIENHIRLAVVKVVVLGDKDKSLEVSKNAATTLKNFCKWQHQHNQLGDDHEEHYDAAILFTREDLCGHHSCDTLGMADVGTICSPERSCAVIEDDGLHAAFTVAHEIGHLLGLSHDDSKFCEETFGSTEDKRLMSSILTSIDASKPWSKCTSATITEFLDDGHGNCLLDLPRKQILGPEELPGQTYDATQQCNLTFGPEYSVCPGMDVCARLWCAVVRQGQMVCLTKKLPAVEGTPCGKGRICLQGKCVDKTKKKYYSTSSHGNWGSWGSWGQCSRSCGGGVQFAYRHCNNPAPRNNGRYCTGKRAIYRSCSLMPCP

The target of a further assay is MMP13 (human, UniProt P45452 104-471, limits assumed).
For a further assay, the target named is T2, ADAMTS4 (human, UniProt O75173 213-685, limits assumed).
T2 sequence (looked up): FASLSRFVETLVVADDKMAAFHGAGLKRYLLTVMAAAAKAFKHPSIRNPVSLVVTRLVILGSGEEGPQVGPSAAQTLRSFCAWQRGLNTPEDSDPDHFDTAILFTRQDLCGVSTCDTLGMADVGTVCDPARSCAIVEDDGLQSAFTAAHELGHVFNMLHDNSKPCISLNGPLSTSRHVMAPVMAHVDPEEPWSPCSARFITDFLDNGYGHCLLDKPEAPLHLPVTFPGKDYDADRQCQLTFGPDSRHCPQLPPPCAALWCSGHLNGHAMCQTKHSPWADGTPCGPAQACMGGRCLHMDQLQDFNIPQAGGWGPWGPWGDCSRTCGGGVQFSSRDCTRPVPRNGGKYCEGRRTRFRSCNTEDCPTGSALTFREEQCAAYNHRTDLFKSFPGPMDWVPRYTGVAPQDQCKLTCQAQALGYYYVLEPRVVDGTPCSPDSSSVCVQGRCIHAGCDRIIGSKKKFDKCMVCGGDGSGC

B1: Variant A2M, bait region SEQ ID NO 110 (other)
chain: SVSGKPQYMVLVPSLLHTETTEKGCVLLSYLNETVTVSASLESVRGNRSLFTDLEAENDVLHCVAFAVPKSSSNEEVMFLTVQVKGPTQEFKKRTTVMVKNEDSLVFVQTDKSIYKPGQTVKFRVVSMDENFHPLNELIPLVYIQDPKGNRIAQWQSFQLEGGLKQFSFPLSSEPFQGSYKVVVQKKSGGRTEHPFTVEEFVLPKFEVQVTVPKIITILEEEMNVSVCGLYTYGKPVPGHVTVSICRKYSDASDCHGEDSQAFCEKFSGQLNSHGCFYQQVKTKVFQLKRKEYEMKLHTEAQIQEEGTVVELTGRQSSEITRTITKLSFVKVDSHFRQGIPFFGQVRLVDGKGVPIPNKVIFIRGNEANYYSNATTDEHGLVQFSINTTNVMGTSLTVRVNYKDRSPCYGYQWVSEEHEEAHHTAYLVFSPSKSFVHLEPMSHELPCGHTQTVQAHYILNGGTLLGLKKLSFYYLIMAKGGIVRTGTHGLLVKQEDMKGHFSISIPVKSDIAPVARLLIYAVLPTGDVIGDSAKYDVENCLANKVDLSFSPSQSLPASHAHLRVTAAPQSVCALRAVDQSVLLMKPDAELSASSVYNLLPEKDLTGFPGPLNDQDDEDCINRHNVYINGITYTPVSSTNEKDMYSFLEDMGLKAFTNSKIRKPKMCPQLETEGRGEREAQGEFPEVEGEEEGGGPEKETGGEREAQGKLRKYFPETWIWDLVVVNSAGVAEVGVTVPDTITEWKAGAFCLSEDAGLGISSTASLRAFQPFFVELTMPYSVIRGEAFTLKATVLNYLPKCIRVSVQLEASPAFLAVPVEKEQAPHCICANGRQTVSWAVTPKSLGNVNFTVSAEALESQELCGTEVPSVPEHGRKDTVIKPLLVEPEGLEKETTFNSLLCPSGGEVSEELSLKLPPNVVEESARASVSVLGDILGSAMQNTQNLLQMPYGCGEQNMVLFAPNIYVLDYLNETQQLTPEIKSKAIGYLNTGYQRQLNYKHYDGSYSTFGERYGRNQGNTWLTAFVLKTFAQARAYIFIDEAHITQALIWLSQRQKDNGCFRSSGSLLNNAIKGGVEDEVTLSAYITIALLEIPLTVTHPVVRNALFCLESAWKTAQEGDHGSHVYTKALLAYAFALAGNQDKRKEVLKSLNEEAVKKDNSVHWERPQKPKAPVGHFYEPQAPSAEVEMTSYVLLAYLTAQPAPTSEDLTSATNIVKWITKQQNAQGGFSSTQDTVVALHALSKYGAATFTRTGKAAQVTIQSSGTFSSKFQVDNNNRLLLQQVSLPELPGEYSMKVTGEGCVYLQTSLKYNILPEKEEFPFALGVQTLPQTCDEPKAHTSFQISLSVSYTGSRSASNMAIVDVKMVSGFIPLKPTVKMLERSNHVSRTEVSSNHVLIYLDKVSNQTLSLFFTVLQDVPVRDLKPAIVKVYDYYETDEFAIAEYNAPCSKDLGNADYKDDDDKGASHHHHHH
B1: the “Protease Inhibition (% of WT)” value with ADAMTS5 is 208 % of WT; with MMP13, 51 % of WT; with ADAMTS4, 101 % of WT.

B2: Variant A2M, bait region SEQ ID NO 112 (other)
chain: SVSGKPQYMVLVPSLLHTETTEKGCVLLSYLNETVTVSASLESVRGNRSLFTDLEAENDVLHCVAFAVPKSSSNEEVMFLTVQVKGPTQEFKKRTTVMVKNEDSLVFVQTDKSIYKPGQTVKFRVVSMDENFHPLNELIPLVYIQDPKGNRIAQWQSFQLEGGLKQFSFPLSSEPFQGSYKVVVQKKSGGRTEHPFTVEEFVLPKFEVQVTVPKIITILEEEMNVSVCGLYTYGKPVPGHVTVSICRKYSDASDCHGEDSQAFCEKFSGQLNSHGCFYQQVKTKVFQLKRKEYEMKLHTEAQIQEEGTVVELTGRQSSEITRTITKLSFVKVDSHFRQGIPFFGQVRLVDGKGVPIPNKVIFIRGNEANYYSNATTDEHGLVQFSINTTNVMGTSLTVRVNYKDRSPCYGYQWVSEEHEEAHHTAYLVFSPSKSFVHLEPMSHELPCGHTQTVQAHYILNGGTLLGLKKLSFYYLIMAKGGIVRTGTHGLLVKQEDMKGHFSISIPVKSDIAPVARLLIYAVLPTGDVIGDSAKYDVENCLANKVDLSFSPSQSLPASHAHLRVTAAPQSVCALRAVDQSVLLMKPDAELSASSVYNLLPEKDLTGFPGPLNDQDDEDCINRHNVYINGITYTPVSSTNEKDMYSFLEDMGLKAFTNSKIRKPKMCPQLEPGLAPGGEEGVEEGGPEEGVEEGGFKEGVEGEPESSGKLRKYFPETWIWDLVVVNSAGVAEVGVTVPDTITEWKAGAFCLSEDAGLGISSTASLRAFQPFFVELTMPYSVIRGEAFTLKATVLNYLPKCIRVSVQLEASPAFLAVPVEKEQAPHCICANGRQTVSWAVTPKSLGNVNFTVSAEALESQELCGTEVPSVPEHGRKDTVIKPLLVEPEGLEKETTFNSLLCPSGGEVSEELSLKLPPNVVEESARASVSVLGDILGSAMQNTQNLLQMPYGCGEQNMVLFAPNIYVLDYLNETQQLTPEIKSKAIGYLNTGYQRQLNYKHYDGSYSTFGERYGRNQGNTWLTAFVLKTFAQARAYIFIDEAHITQALIWLSQRQKDNGCFRSSGSLLNNAIKGGVEDEVTLSAYITIALLEIPLTVTHPVVRNALFCLESAWKTAQEGDHGSHVYTKALLAYAFALAGNQDKRKEVLKSLNEEAVKKDNSVHWERPQKPKAPVGHFYEPQAPSAEVEMTSYVLLAYLTAQPAPTSEDLTSATNIVKWITKQQNAQGGFSSTQDTVVALHALSKYGAATFTRTGKAAQVTIQSSGTFSSKFQVDNNNRLLLQQVSLPELPGEYSMKVTGEGCVYLQTSLKYNILPEKEEFPFALGVQTLPQTCDEPKAHTSFQISLSVSYTGSRSASNMAIVDVKMVSGFIPLKPTVKMLERSNHVSRTEVSSNHVLIYLDKVSNQTLSLFFTVLQDVPVRDLKPAIVKVYDYYETDEFAIAEYNAPCSKDLGNADYKDDDDKGASHHHHHH
Turning to B2, the “Protease Inhibition (% of WT)” value with ADAMTS5 was 199 % of WT; with MMP13, 56 % of WT; with ADAMTS4, 108 % of WT.

B3: Variant A2M, bait region SEQ ID NO 111 (other)
chain: SVSGKPQYMVLVPSLLHTETTEKGCVLLSYLNETVTVSASLESVRGNRSLFTDLEAENDVLHCVAFAVPKSSSNEEVMFLTVQVKGPTQEFKKRTTVMVKNEDSLVFVQTDKSIYKPGQTVKFRVVSMDENFHPLNELIPLVYIQDPKGNRIAQWQSFQLEGGLKQFSFPLSSEPFQGSYKVVVQKKSGGRTEHPFTVEEFVLPKFEVQVTVPKIITILEEEMNVSVCGLYTYGKPVPGHVTVSICRKYSDASDCHGEDSQAFCEKFSGQLNSHGCFYQQVKTKVFQLKRKEYEMKLHTEAQIQEEGTVVELTGRQSSEITRTITKLSFVKVDSHFRQGIPFFGQVRLVDGKGVPIPNKVIFIRGNEANYYSNATTDEHGLVQFSINTTNVMGTSLTVRVNYKDRSPCYGYQWVSEEHEEAHHTAYLVFSPSKSFVHLEPMSHELPCGHTQTVQAHYILNGGTLLGLKKLSFYYLIMAKGGIVRTGTHGLLVKQEDMKGHFSISIPVKSDIAPVARLLIYAVLPTGDVIGDSAKYDVENCLANKVDLSFSPSQSLPASHAHLRVTAAPQSVCALRAVDQSVLLMKPDAELSASSVYNLLPEKDLTGFPGPLNDQDDEDCINRHNVYINGITYTPVSSTNEKDMYSFLEDMGLKAFTNSKIRKPKMCPQLEARGLEGGGGGSLLGGYPGSSRGGFKEGVEGGPAGAARGKLRKYFPETWIWDLVVVNSAGVAEVGVTVPDTITEWKAGAFCLSEDAGLGISSTASLRAFQPFFVELTMPYSVIRGEAFTLKATVLNYLPKCIRVSVQLEASPAFLAVPVEKEQAPHCICANGRQTVSWAVTPKSLGNVNFTVSAEALESQELCGTEVPSVPEHGRKDTVIKPLLVEPEGLEKETTFNSLLCPSGGEVSEELSLKLPPNVVEESARASVSVLGDILGSAMQNTQNLLQMPYGCGEQNMVLFAPNIYVLDYLNETQQLTPEIKSKAIGYLNTGYQRQLNYKHYDGSYSTFGERYGRNQGNTWLTAFVLKTFAQARAYIFIDEAHITQALIWLSQRQKDNGCFRSSGSLLNNAIKGGVEDEVTLSAYITIALLEIPLTVTHPVVRNALFCLESAWKTAQEGDHGSHVYTKALLAYAFALAGNQDKRKEVLKSLNEEAVKKDNSVHWERPQKPKAPVGHFYEPQAPSAEVEMTSYVLLAYLTAQPAPTSEDLTSATNIVKWITKQQNAQGGFSSTQDTVVALHALSKYGAATFTRTGKAAQVTIQSSGTFSSKFQVDNNNRLLLQQVSLPELPGEYSMKVTGEGCVYLQTSLKYNILPEKEEFPFALGVQTLPQTCDEPKAHTSFQISLSVSYTGSRSASNMAIVDVKMVSGFIPLKPTVKMLERSNHVSRTEVSSNHVLIYLDKVSNQTLSLFFTVLQDVPVRDLKPAIVKVYDYYETDEFAIAEYNAPCSKDLGNADYKDDDDKGASHHHHHH
As to B3, the “Protease Inhibition (% of WT)” value in the assay with ADAMTS5 was 89 % of WT; with MMP13 it was 113 % of WT; with ADAMTS4 it was 105 % of WT.
